From the supplement of paper PMC9732359
± gives the uncertainty stated by the source.

Experiment: protein stability index of a GFP-peptide fusion (yeast GPS) (PSI 1-4); higher = more stable; sorted into four equal gates, so the index is relative within each strain
Details: pdr5∆
Outline: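 Tiled yeast protein peptides of 17 residues were each joined downstream of GFP, on plasmids that also express Cherry. The pooled library was maintained in yeast, and mid-log cultures in leucine-free medium were sorted into four equal gates on the GFP/Cherry ratio. Plasmids from every gate were amplified by PCR and sequenced on Illumina, with barcodes linking reads to strains. The protein stability index of a peptide is its gate-number-weighted read frequency summed over the gates.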

Sequence	protein stability index
IDNLKDTLKENATEVQK [ITC1]	2.87 ± 0.068
IDVTFTKVNNQLIKVAV [RPL9A]	1.87 ± 0.048

Same assay, conditions: san1∆

Sequence	protein stability index
GYILEGEELAFYLRRLT [RPS8A]	1.24 ± 0.17
GYTQHGGLRPFGVSFIY [PRE9]	1.84 ± 0.1
HASFLCSFITQDKMFVS [FAS1]	1.35 ± 0.1
HATVVPPEEFSNTIDEL [SRB7]	2.89 ± 0.1
HCYPRQLCQITCQILES [RRP46]	1.72 ± 0.088
HDEKTLAPSKHQPITSE [SIR4]	2.33 ± 0.12
HDKNIQKLLKQLDSDAN [ISW2]	2.69 ± 0.053
HDSILHSRILPKKALKV [RRP43]	1.68 ± 0.079
HDVGELFWKVKEEEGSF [PRE2]	2.92 ± 0.064
HEFKLIVGKKIQEFLVV [GRR1]	2.38 ± 0.076
HELGINIDSLKFNELVK [BRR2]	3.08 ± 0.054
HELPRYGITHGLTNWAA [RPL5]	2.47 ± 0.048
HFPINVNIVEKDGAKFI [RPL9A]	2.53 ± 0.065
HGAASFLKERLMEASDA [RPB2]	1.1 ± 0.18
HGIKDIPIGHVHVIHFQ [AAR2]	2.87 ± 0.059
HGKRRSQVVETHKVTDI [YMR129W/POM152]	3.18 ± 0.064
HHAIEEAESLLQFHVAT [RPO21]	2.64 ± 0.11
HIIQAKADAQREKALNE [RPL19A]	3.33 ± 0.086
HIRKASSKKSKRLDKVG [LRP1]	2.97 ± 0.061
HITSVPISAVLRGCKFL [GRR1]	1.86 ± 0.064
HIVQDCTLTADGAYALS [ASC1]	2.52 ± 0.12
HKDIPEEDFYTVVGNAS [DSN1]	2.73 ± 0.1
HKHREARGLTATGKKSR [RPL15A]	3.31 ± 0.069
HKISFSGTKSEVLTYVN [YJL039C/NUP192]	2.39 ± 0.11
HKKKRSNAAGADDAISM [SRB8]	2.83 ± 0.18
HKNERRVLEIQTSLVRM [SKI6]	2.44 ± 0.13

Sequence	protein stability index
HKSLIRSISWAPSIGRW [YGL100W/SEH1]	2.21 ± 0.22
HKVQTKLTRELEKKFQD [RPS7A]	2.37 ± 0.091
HLALEIGEVYNDQVEKD [RPN1]	3.41 ± 0.19
HLDNSKSVFSSAGLDSA [RPN1]	2.25 ± 0.063
HLEEYGYLIQVLLTFLQ [YCS4]	1.21 ± 0.17
HLILDKLNQKYDIVKFL [GRR1]	1.3 ± 0.1
HLPCTIEAEEAEEIGVE [RPN8]	2.59 ± 0.11
HNGSHRTVAGFSNVELP [ARP7]	2.72 ± 0.085
HNGWVTSLATSAGQPNL [ASC1]	2.09 ± 0.08
HNSVKRYQIMLPEQLKS [SNM1]	1.44 ± 0.1
HPFIPLLKEKPNALKPL [RRP6]	2.94 ± 0.076
HPGYDCWLSNIDIQTQD [RRI1]	3.08 ± 0.062
HPNRVLEHLHSTAFQNT [COR1]	2.4 ± 0.051
HPTIYESLPQYVDFVPM [POP4]	1.81 ± 0.056
HPTTIESLREIPYGPDF [SEC65]	3.01 ± 0.058
HPVSLISFAIYSALNST [RRP42]	1.62 ± 0.089
HPYEYEIDHQEYSPEIL [RRP6]	2.83 ± 0.059
HRCAIRSGALIKFKKCD [SSN2]	2.77 ± 0.054
HRLTLEDPVTVEYLTRY [PRE6]	3.01 ± 0.19
HSDMASKMYNTDKKAFL [PRP8]	2.89 ± 0.051
HSRKMNLTRGINLRKVA [RPT6]	1.3 ± 0.11
HSVQETNKISPKDFSPN [SSN2]	2.93 ± 0.054
HTKFEVAIGLNGKIWVK [RRP40]	2.39 ± 0.072
HVKNFGFANSLTFILGQ [YML031W/NDC1]	1.42 ± 0.13
HVKQCQETCDKLRARLV [SMC2]	2.34 ± 0.11
HVLNKVTLASILTTAVG [RPN1]	1.46 ± 0.21

Sequence	protein stability index
HVLSRLSYISALGMMTR [RET1]	1.24 ± 0.13
HVLYKESKGNAFKHKRA [RPL19A]	2.59 ± 0.08
HWLQLAKGVYRPNGRKD [POP1]	3.2 ± 0.034
HYGLAVDIYTHFTSPIR [DIS3]	1.61 ± 0.064
HYGNEHIRRMVPLAMGI [RPN1]	1.24 ± 0.091
HYGQTLGKKKNVKEEET [RPS8A]	2.38 ± 0.033
HYLVLLVAKFLYPIFLL [YJR042W/NUP85]	1.11 ± 0.071
IAATQDFITGSYLISHK [RPO31]	2.83 ± 0.093
IACVLTVINEQQREAVR [RPL35A]	2.18 ± 0.08
IAGFDLIGCIDEAKDFI [PUP3]	3.08 ± 0.073
IAGINKKKGLDENTSGK [PRP28]	3.44 ± 0.056
IALILAIQMVDPASFYL [SMC3]	2.1 ± 0.12
IALMGQDNKKIYVHVRR [ESC2]	2.47 ± 0.17
IAPPVAPHDSEATLLTN [SNF5]	2.93 ± 0.043
IAQGIDLVRDIDIDKLI [SRP72]	1.58 ± 0.21
IASLERELILAKKQNYK [YCG1]	2.14 ± 0.084
ICDPVHKHREARGLTAT [RPL15A]	2.93 ± 0.13
ICLMTLIETVFVKNIRM [RPN9]	1.22 ± 0.13
IDDNYIVVVIEIITSLS [SRB8]	2.16 ± 0.082
IDEAHRIKNEQSALSQI [ISW2]	1.67 ± 0.089
IDHINEESWEKVVEFAI [SCL1]	3.03 ± 0.068
IDKITDGLGNVVDFTSL [YMR129W/POM152]	3.37 ± 0.061
IDMDKLNTVLIADLDTE [RRP43]	2.83 ± 0.066
IDNLKDTLKENATEVQK [ITC1]	2.92 ± 0.05
